Measurements reported in IntAct's records for PubMed 24240280.

Legend:
sv2c_human SV2C [1] = target: T1, sv2c_human SV2C (UniProt Q496J9)
T1 sequence: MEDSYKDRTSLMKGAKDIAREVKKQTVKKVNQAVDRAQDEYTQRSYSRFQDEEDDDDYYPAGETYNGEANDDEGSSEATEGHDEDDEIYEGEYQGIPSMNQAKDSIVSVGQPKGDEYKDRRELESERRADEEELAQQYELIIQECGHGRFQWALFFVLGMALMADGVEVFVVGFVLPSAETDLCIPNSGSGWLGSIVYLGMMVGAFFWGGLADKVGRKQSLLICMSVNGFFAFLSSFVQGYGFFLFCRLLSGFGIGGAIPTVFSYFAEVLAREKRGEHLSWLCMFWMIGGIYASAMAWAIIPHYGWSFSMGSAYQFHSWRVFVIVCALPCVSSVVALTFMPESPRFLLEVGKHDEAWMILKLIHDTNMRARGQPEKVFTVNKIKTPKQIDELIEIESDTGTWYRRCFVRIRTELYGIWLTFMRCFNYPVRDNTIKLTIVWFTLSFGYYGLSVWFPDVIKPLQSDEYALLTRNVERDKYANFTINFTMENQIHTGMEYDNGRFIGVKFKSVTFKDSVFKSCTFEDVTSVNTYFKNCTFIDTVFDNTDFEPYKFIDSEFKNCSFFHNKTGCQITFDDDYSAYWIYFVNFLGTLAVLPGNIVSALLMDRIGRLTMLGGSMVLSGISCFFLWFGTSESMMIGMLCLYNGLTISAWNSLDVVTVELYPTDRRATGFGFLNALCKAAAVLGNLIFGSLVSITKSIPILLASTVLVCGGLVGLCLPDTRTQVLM

sv2c_human SV2C [2] = target: T1, sv2c_human SV2C; remark: listed apart in the source

Botulinum neurotoxin type A (Clostridium botulinum) (from UniProt P0DPI0) R1156E
effect of a mutation on the interaction (sv2c_human SV2C [1]): decreasing interaction strength

Botulinum neurotoxin type A (Clostridium botulinum) (from UniProt P0DPI0) R1294A
effect of a mutation on the interaction (sv2c_human SV2C [1]): decreasing interaction strength

Botulinum neurotoxin type A (Clostridium botulinum) (from UniProt P0DPI0) T1145A;T1146A
effect of a mutation on the interaction (sv2c_human SV2C [2]): decreasing interaction strength | effect of a mutation on the interaction (sv2c_human SV2C [1]): disrupting interaction strength
